Test results: paper PMC7467569, “The Progesterone 5β-Reductase/Iridoid Synthase Family: A Catalytic Reservoir for Specialized Metabolism across Land Plants” (ACS Chemical Biology, 2020)

What was measured:
Assay in all cases: purified protein
purified protein [1] = substrate: C/C(C=O)=C\CC/C(C)=C/C=O; conditions: 250 μM NADPH, 50 mM HEPES/NaOH pH 7.0, 100 mM NaCl, 25 °C, 0.1% tetrahydrofuran
purified protein [2] = substrate: CC(=O)[C@H]1CC[C@H]2[C@@H]3CCC4=CC(=O)CC[C@]4(C)[C@H]3CC[C@]12C; conditions: 250 μM NADPH, 50 mM HEPES/NaOH pH 7.0, 100 mM NaCl, 25 °C, 1.5% ethanol
purified protein [3] = substrate: C/C(C=O)=C\CC/C(C)=C/C=O; format: biochemical, Catharanthus roseus; conditions: 250 μM NADPH, 50 mM HEPES/NaOH pH 7.0, 100 mM NaCl, 25 °C, 0.1% tetrahydrofuran
purified protein [4] = substrate: C/C(C=O)=C\CC/C(C)=C/C=O; format: biochemical, Coccomyxa subellipsoidea; conditions: 250 μM NADPH, 50 mM HEPES/NaOH pH 7.0, 100 mM NaCl, 25 °C, 0.1% tetrahydrofuran
purified protein [5] = substrate: CC(=O)[C@H]1CC[C@H]2[C@@H]3CCC4=CC(=O)CC[C@]4(C)[C@H]3CC[C@]12C; format: biochemical, Coccomyxa subellipsoidea; conditions: 250 μM NADPH, 50 mM HEPES/NaOH pH 7.0, 100 mM NaCl, 25 °C, 1.5% ethanol

B1: Arabidopsis thaliana 1 (PRISE1) (Arabidopsis thaliana) (protein)
chain: SWWWAGAIGAAKKKLDEDEPSQSFESVALIIGVTGIVGNSLAEILPLSDTPGGPWKVYGVARRPRPTWNADHPIDYIQCDVSDAEDTRSKLSPLTDVTHVFYVTWTNRESESENCEANGSMLRNVLQAIIPYAPNLRHVCLQTGTKHYLGPFTNVDGPRHDPPFTEDMPRLQIQNFYYTQEDILFEEIKKIETVTWSIHRPNMIFGFSPYSLMNIVGTLCVYAAICKHEGSPLLFPGSKKAWEGFMTASDADLIAEQQIWAAVDPYAKNEAFNCNNADIFKWKHLWKILAEQFGIEEYGFEEGKNLGLVEMMKGKERVWEEMVKENQLQEKKLEEVGVWWFADVILGVEGMIDSMNKSKEYGFLGFRNSNNSFISWIDKYKAFKIVP
**Q.** For B1, which Km (purified protein [1]) is on record?
**A.** 41.8 ± 2.75 µM

**Q.** And the kcat (purified protein [1])?
**A.** 0.155 ± 0.004 s⁻¹

**Q.** And the kcat/Km (purified protein [1])?
**A.** 3710 M⁻¹ s⁻¹

**Q.** And the Km (purified protein [2])?
**A.** 6.0 ± 2.5 µM

B2: Arabidopsis thaliana 2 (PRISE2) (Arabidopsis thaliana) (protein)
chain: GSENGSLMRRNEVDENVALIFGVTGLVGREIVKTLLMSKPGWRIYGVARNPEINSMTKMYNFISCDLLNASETKQRLSPLQDIVSHVFWVTWSGEFPLDTDECCVQNKTMLMNALDAILPNAKRLKHFSLQTGMKHYVSLVEETMARGEGSSLYYYSEECPRKSSGKNFYYVLEDLLKEKITRSSVVWSVQRPGLLMGSSSRTLYNFMGSLCVYGAMCKYLNLPFVFGGTRECWEESYIDGSDSNLVAEQHIFAATSGKVREKGEAFNAINGVGFTWKEIWPEIGKKLGVQVNETTMFDEGFWFGREMVERKHVWDEIVVKEKLVRTEIEDLANWYFLDALFRCPFKLLGKREKVDRFGFKRKYRTLDSVLYWIDVMRDEKLIPL
**Q.** Which Km (purified protein [2]) does the source give for B2 here?
**A.** 5.7 ± 2.3 µM

B3: Catharanthus roseus 5 (PRISE5, ISY) (Catharanthus roseus) (protein)
chain: MSWWWKRSIGAGKNLPNQNKENGVCKSYKSVALVVGVTGIVGSSLAEVLKLPDTPGGPWKVYGVARRPCPVWLAKKPVEYIQCDVSDNQETISKLSPLKDITHIFYVSWIGSEDCQTNATMFKNILNSVIPNASNLQHVCLQTGIKHYFGIFEEGSKVVPHDSPFTEDLPRLNVPNFYHDLEDILYEETGKNNLTWSVHRPALVFGFSPCSMMNIVSTLCVYATICKHENKALVYPGSKNSWNCYADAVDADLVAEHEIWAAVDPKAKNQVLNCNNGDVFKWKHIWKKLAEEFGIEMVGYVEGKEQVSLAELMKDKDQVWDEIVKKNNLVPTKLKEIAAFWFADIAFCSENLISSMNKSKELGFLGFRNSMKSFVSCIDKMRDYRFIP
notes: codon-optimized gene from earlier study in pOPINF, N-terminal His6 tag (no cleavage told), E. coli
**Q.** How did the Km (purified protein [3]) turn out when B3 was run?
**A.** 8.5 ± 1.5 µM

B4: Coccomyxa subellipsoidea PRISE (Coccomyxa subellipsoidea C-169) (protein)
chain: GYVALIAGVTGVTGRNLALHLQNCDRWDAVYGGSRRPCGLGGKVKDLRMDLDNKTSLVDTLKGAQDVTHLFFCAYRPTESAATDVTTNFGMFKNVIEAGEGAGLKLKHVSFLSGTKWYGVHIGPVKTPSREDDPRAMSPNFYYDMEDYCIARVTKGADWTWSSVRPNPVCGFSTGSAMNLTMTIAVYASICKELGLPFRFPGSPQAYNVLLEVVDADLLACSMEYISTQPHAGNTSYNVSNGDVFRWSEVWPKLAAFFELPLAEPQKFSMTTMLAYHECVWQKLVEKHGLSKEVASYKDVATWGFGDWVFGQEKDWFSDVNKLRRTGFQEQNLDSAEMFLRQFKELRAAKLIP
notes: full-length synthetic gene in pOPINF, N-terminal His6 tag (no cleavage told), E. coli
**Q.** B4 was tested. Which Km (purified protein [4]) did it give?
**A.** 7.0 ± 1.6 µM

**Q.** And the kcat (purified protein [4])?
**A.** 0.025 ± 0.001 s⁻¹

**Q.** What about the kcat/Km (purified protein [4]) of the same protein?
**A.** 3580 M⁻¹ s⁻¹

**Q.** What about the Km (purified protein [5]) of the same protein?
**A.** 23.6 ± 5.8 µM
